Experimental data: publication PMC10035497, “Structures of Cancer Antigen Mesothelin and Its Complexes with Therapeutic Antibodies” (Cancer Research Communications, 2023)

Biological target: T1, C-terminal shedding-resistant peptide of MSLN (residues 582-598) (human, UniProt Q13421-3)
T1 construct: Mesothelin, human, 17-residue peptide I582 to S598, holds most of the major sheddase cleavage sites; numbers count on: the 622-residue precursor, isoform Q13421-3; also called C-terminal peptide; 17-residue peptide; source: synthetic peptide (GenScript)
T1 chain: IPNGYLVLDLSMQEALS
Experiment: crystal structure; synthetic peptide 582-598 mixed with Fab(15B6) at a molar ratio of 3:1 in 20 mmol/L Tris, 100 mmol/L NaCl, pH 7.5, overnight at 4°C; 1.74 Å
Conditions: both partners purified

B1: Fab fragment of mAb 15B6 (Fab, V domains shown)
VH: EVQLQQSGPVLVKPGASVKISCKASGYSFTGYYMHWVRQSNGKSLEWIGRINPYTGVPSYKHNFKDKASLTVDKSSSTAYMELHSLTSEDSAVYYCARELGGYWGQGTTLTVSS
VL: QAVVTQESALTTSPGETVTLTCRSSTGAVTTGNYPNWVQEKPDHLFTGLIAGTNNRAPGVPARFSGSLIGDKAALTITGAQTEDEAIYFCALWFSSHWVFGGGTKLTVL
notes: heavy chain of the Fab in PDB 7U8C (214 residues modelled); mouse IgG2b; light chain of the Fab in PDB 7U8C (213 residues modelled); mouse lambda; mouse isotype IgG2b lambda; raised against the peptide I582-S598; also called Fab(15B6); Fab of Mab 15B6; source: mAb 15B6 obtained from GenScript, digested with immobilised papain, Fc removed on Protein A
Q: Does B1 bind?
A: binds
